Reference: patent US20190040138A1 (AKESO BIOPHARMA, published 2019)
Substitutions are numbered along the chain they refer to. One block for each binder: values may come before it.

Experiments:
[1] = biological target: T1, PD-1-mIgGFc fusion protein; experiment: ELISA on coated PD-1-mFc
T1 construct: also called PD-1-mFc; PD-1-mIgGFc antigen
Description: (§1) An ELISA plate was coated with PD-1-mFc antigen in a concentration of 0.5 μg/ml (50 μl per well) by incubation at 4° C. overnight.
(§2) The absorbance of solution in each well was measured with the microplate reader under a wavelength of 450 nm.

[2] = biological target: T1, PD-1-mIgGFc fusion protein; experiment: competitive ELISA on coated PD-1-mIgGFc; competitor PDL1-mIgG2aFc 0.3 µg/ml; antibody 1.5 µg/ml diluted 1:3; replicate 2
Description: (§3) A 96-well ELISA plate was coated with PD-1-mIgGFc antigen in a concentration of 0.5 μg/ml (50 μl per well) by incubation at 4° C. overnight.
(§4) The 18A10 H1L1, 18A10 H2L2 and 18A10 H3L3 antibodies each were diluted from 3 μg/ml in series by 1:3, with 7 gradient antibody solutions obtained for each antibody. The 7 gradient antibody solutions for each antibody and the blank PBS control (50 μl per well) were respectively added into the blocked 96-well ELISA plate for incubation at room temperature for 10 minutes.
(§5) After the 96-well ELISA plate was washed with the PBST buffer for three times and gently patted to dryness, goat anti-mouse IgG-HRP (H+L) as a secondary antibody in 1:5000 dilution (50 μl per well) was added for incubation at 37° C. for 1 hour.

[3] = biological target: T2, PD-1 antigen stably expressed on the surface of BB007 cells (UniProt Q15116 25-288, limits assumed); experiment: flow cytometry on BB007 cells; antibody 5 nM
T2 construct: whole, on cells; also called target protein PD-1 on the surface of the BB007 cell
T2 sequence (Q15116 25-288 limits assumed): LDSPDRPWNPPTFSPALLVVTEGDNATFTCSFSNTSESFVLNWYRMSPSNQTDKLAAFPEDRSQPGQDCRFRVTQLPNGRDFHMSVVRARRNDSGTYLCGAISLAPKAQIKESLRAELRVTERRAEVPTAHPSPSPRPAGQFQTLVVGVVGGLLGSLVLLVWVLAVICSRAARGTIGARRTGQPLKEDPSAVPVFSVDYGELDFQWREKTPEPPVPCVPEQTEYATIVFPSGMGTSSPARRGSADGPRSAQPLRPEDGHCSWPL
Description: (§6) The binding efficiencies of H1L1, H2L2 and H3L3 antibodies to PD-1 antigen stably expressed on the surface of cells (named as BB007 cells) were determined by flow cytometry. The BB007 cells were obtained by routine trypsin digestion, and then washed with PBS buffer once, followed by dividing into several tubes, with 2×10⁵ cells per tube. After dilution into concentrations of 20 nM, 10 nM, 5 nM, 1 nM, 0.1 nM and 0 nM with the PBS buffer containing 1% BSA for each of the H1L1, H2L2 and H3L3 antibodies, individual antibodies in a volume of 100 μl were added into individual tubes and incubated on ice for 1 hour. After the mixture was washed with the PBS buffer once, 100 μl FITC-Goat-Anti-Human IgG (in 1:500 dilution) was added for each tube and incubated on ice for 1 hour, followed by addition of 300 μl the PBS buffer for detecting fluorescence signal with a FITC channel on the flow cytometer.

[4] = biological target: T1, PD-1-mIgGFc fusion protein; experiment: competitive ELISA on coated PD-1-mIgGFc; competitor PDL1-mIgG2aFc 0.3 µg/ml; antibody 1.5 µg/ml; replicate 1
Description: as §3, §4, §2

[5] = biological target: T1, PD-1-mIgGFc fusion protein; experiment: ELISA on coated PD-1-mFc; antibody 1 µg/ml; replicate 1
Description: as §1
(§7) After the ELISA plate was washed with the PBST buffer for three times and gently patted to dryness again, TMB as a developer in 50 μl per well was added for incubation at room temperature for 5 to 10 minutes.
as §2

[6] = biological target: T2, PD-1 antigen stably expressed on the …; experiment: flow cytometry on BB007 cells; antibody 0.1 nM
Description: as §6

[7] = biological target: T1, PD-1-mIgGFc fusion protein; experiment: competitive ELISA on coated PD-1-mIgGFc; competitor PDL1-mIgG2aFc 0.3 µg/ml; antibody 1.5 µg/ml diluted 1:9; replicate 2
Description: as §3
[…] The 7 gradient antibody solutions for each antibody and the blank PBS control (50 μl per well) were respectively added into the blocked 96-well ELISA plate for incubation at room temperature for 10 minutes.
as §5

[8] = biological target: T1, PD-1-mIgGFc fusion protein; experiment: ELISA on coated PD-1-mFc; antibody 1 µg/ml diluted 1:243; replicate 1
Description: as §1, §7, §2

[9] = biological target: T1, PD-1-mIgGFc fusion protein; experiment: competitive ELISA on coated PD-1-mIgGFc; competitor PDL1-mIgG2aFc 0.3 µg/ml; antibody 1.5 µg/ml diluted 1:729; replicate 1
Description: as §3, §4, §5

[10] = biological target: T1, PD-1-mIgGFc fusion protein; experiment: ELISA on coated PD-1-mFc; antibody 1 µg/ml diluted 1:27; replicate 1
Description: as §1, §7, §2

[11] = biological target: T1, PD-1-mIgGFc fusion protein; experiment: ELISA on coated PD-1-mFc; antibody 1 µg/ml diluted 1:81; replicate 1
Description: as §1
(§8) The ELISA plate coated with the PD-1-mFc antigen was blocked with 1% BSA in the PBS buffer at 37° C. for 2 hours, and washed with 1×PBST buffer containing 1% Tween-20 for three times, with gently patting to dryness.
as §2

[12] = biological target: biotin-labeled PD-1 antigen (UniProt Q15116 25-167, limits assumed, biotin-labeled (site not stated)); experiment: BLI (Fortebio), biotin-labeled PD-1 on SA sensor
Sequence of biotin-labeled PD-1 antigen (Q15116 25-167 limits assumed): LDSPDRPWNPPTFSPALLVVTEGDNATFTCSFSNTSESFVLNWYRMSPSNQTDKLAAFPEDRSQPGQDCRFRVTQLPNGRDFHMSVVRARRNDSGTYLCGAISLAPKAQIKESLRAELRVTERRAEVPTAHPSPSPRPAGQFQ
Description: Kinetic characteristic parameters of 18A10 H1L1, H2L2 and H3L3 antibodies were determined using the Fortebio molecule interaction instrument.
The biotin-labeled PD-1 antigen was immobilized on the surface of the SA sensor. […] Assays for H2L2 and H3L3 are the same as H1L1. Results of kinetic characteristic parameters of the H1L1, H2L2 and H3L3 antibodies are shown in Table 4, FIG. 4, FIG. 5 and FIG. 6.

[13] = biological target: T1, PD-1-mIgGFc fusion protein; experiment: competitive ELISA on coated PD-1-mIgGFc; competitor PDL1-mIgG2aFc 0.3 µg/ml; antibody 1.5 µg/ml diluted 1:9; replicate 1
Description: as §3, §4, §5

[14] = biological target: T1, PD-1-mIgGFc fusion protein; experiment: competitive ELISA on coated PD-1-mIgGFc; competitor PDL1-mIgG2aFc 0.3 µg/ml; antibody 1.5 µg/ml diluted 1:81; replicate 1
Description: as §3, §4, §2

[15] = biological target: T2, PD-1 antigen stably expressed on the …; experiment: flow cytometry on BB007 cells
Description: as §6

[16] = biological target: T1, PD-1-mIgGFc fusion protein; experiment: competitive ELISA on coated PD-1-mIgGFc; competitor PDL1-mIgG2aFc
Description: as §3, §4

[17] = biological target: T1, PD-1-mIgGFc fusion protein; experiment: ELISA on coated PD-1-mFc; antibody 1 µg/ml; replicate 2
Description: as §1, §7, §2

[18] = biological target: T1, PD-1-mIgGFc fusion protein; experiment: ELISA on coated PD-1-mFc; antibody 1 µg/ml diluted 1:243; replicate 2
Description: as §1, §8, §2

T1 sequence (chain, as listed by the source limits assumed): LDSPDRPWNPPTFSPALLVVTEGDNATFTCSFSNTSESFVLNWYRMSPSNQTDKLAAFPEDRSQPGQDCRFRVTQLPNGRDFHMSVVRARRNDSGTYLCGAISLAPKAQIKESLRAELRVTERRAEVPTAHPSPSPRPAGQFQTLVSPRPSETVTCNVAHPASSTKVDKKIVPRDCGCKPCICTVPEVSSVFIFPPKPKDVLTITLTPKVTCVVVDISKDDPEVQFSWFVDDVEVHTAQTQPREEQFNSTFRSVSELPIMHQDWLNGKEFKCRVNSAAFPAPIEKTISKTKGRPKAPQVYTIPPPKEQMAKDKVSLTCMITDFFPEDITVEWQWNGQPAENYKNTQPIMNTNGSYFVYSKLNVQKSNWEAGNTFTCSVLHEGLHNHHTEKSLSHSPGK

EC50 [1]: 111 pM
absorbance at 450 nm (competition) [2]: 0.097
fluorescence intensity [3]: 321
absorbance at 450 nm (competition) [4]: 0.11
absorbance at 450 nm [5]: 2.36
fluorescence intensity [6]: 19.1
absorbance at 450 nm (competition) [7]: 0.506
absorbance at 450 nm [8]: 0.545
absorbance at 450 nm (competition) [9]: 1.2
absorbance at 450 nm [10]: 1.78
absorbance at 450 nm [11]: 1.04
Kd [12]: 42.8 pM
koff [12]: 9.86e-06 s⁻¹
kon [12]: 231000 M⁻¹ s⁻¹
absorbance at 450 nm (competition) [13]: 0.474
absorbance at 450 nm (competition) [14]: 1.09
EC50 [15]: 1590 pM
EC50 [16]: 838 pM
absorbance at 450 nm [17]: 2.43
absorbance at 450 nm [18]: 0.475
B1: humanized antibody 18A10 H2L2 (antibody, V domains shown)
VH: EVQLVQSGGGLVQPGGSLKLSCAASGFTFSSYGMSWVRQAPGKGLDWVATISGGGRDTYYPDSVKGRFTISRDNSKNNLYLQMNSLRAEDTALYYCARQKGEAWFAYWGQGTLVTVSS
VL: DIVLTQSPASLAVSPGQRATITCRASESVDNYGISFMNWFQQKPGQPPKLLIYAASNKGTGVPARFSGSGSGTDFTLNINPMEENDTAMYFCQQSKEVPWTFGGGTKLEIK
notes: also called H2L2 antibody

EC50 [1]: 156 pM
absorbance at 450 nm (competition) [2]: 0.109
fluorescence intensity [3]: 252
absorbance at 450 nm (competition) [4]: 0.11
absorbance at 450 nm [5]: 2.47
fluorescence intensity [6]: 19
absorbance at 450 nm (competition) [7]: 0.586
absorbance at 450 nm [8]: 0.45
absorbance at 450 nm (competition) [9]: 1.35
absorbance at 450 nm [10]: 1.62
absorbance at 450 nm [11]: 0.883
Kd [12]: 36 pM
koff [12]: 1.32e-05 s⁻¹
kon [12]: 367000 M⁻¹ s⁻¹
absorbance at 450 nm (competition) [13]: 0.625
absorbance at 450 nm (competition) [14]: 1.29
EC50 [15]: 3380 pM
EC50 [16]: 992 pM
absorbance at 450 nm [17]: 2.32
absorbance at 450 nm [18]: 0.431
B2: humanized antibody 18A10 H1L1 (antibody, V domains shown)
VH: B1 VH with A40T, G42E
VL: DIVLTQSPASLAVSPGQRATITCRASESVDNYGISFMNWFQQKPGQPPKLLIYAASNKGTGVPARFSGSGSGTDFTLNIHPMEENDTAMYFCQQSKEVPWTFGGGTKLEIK
notes: also called H1L1 antibody

EC50 [1]: 144 pM
absorbance at 450 nm (competition) [2]: 0.108
fluorescence intensity [3]: 343
absorbance at 450 nm (competition) [4]: 0.101
absorbance at 450 nm [5]: 2.14
fluorescence intensity [6]: 21.2
absorbance at 450 nm (competition) [7]: 0.678
absorbance at 450 nm [8]: 0.432
absorbance at 450 nm (competition) [9]: 1.28
absorbance at 450 nm [10]: 1.58
absorbance at 450 nm [11]: 0.928
Kd [12]: 114 pM
koff [12]: 1.56e-05 s⁻¹
kon [12]: 137000 M⁻¹ s⁻¹
absorbance at 450 nm (competition) [13]: 0.7
absorbance at 450 nm (competition) [14]: 1.09
EC50 [15]: 1680 pM
EC50 [16]: 1190 pM
absorbance at 450 nm [17]: 2.44
absorbance at 450 nm [18]: 0.377
B3: humanized antibody 18A10 H3L3 (antibody, V domains shown)
VH: B1 VH with N78T, L93V
VL: DIVLTQSPASLAVSPGQRATITCRASESVDNYGISFMNWYQQKPGQPPKLLIYAASNKATGVPARFSGSGSGTDFTLNINPMEANDTAVYFCQQSKEVPWTFGGGTKLEIK
notes: also called H3L3 antibody
